# Test results taken from the RNAGym collection of RNA variant scans (doi:10.7554/elife.80360).
# B1: Hairpin Ribozyme (parent)
# chain: GUCCUCUUUCACGUGCGCGUGAAAGAGAGAAGUGAACCAGAGAAACACACGUUGUGGUAUAUUACCUGGUA
# Variants of: B1
# Assay: self-cleavage, relative activity (ratio to wild type); higher = more cleavage; co-transcriptional
row,Variant,self-cleavage
1,GUCCUUUUUCACGUCCGCGUGAAAGAGAGAAGUGAACCAGAGAAACACACGUUGUGGUAUAUUACCUGGUA,0.722
2,GUCCUUUUUCACGUACGCGUGAAAGAGAGAAGUGAACCAGAGAAACACACGUUGUGGUAUAUUACCUGGUA,0.794
3,GUCCUUUUUCACGUGCGCGUGAAAGAGAGAAGUGAACCAGAUAAACACACGUUGUGGUAUAUUACCUGGUA,0.323
4,GUCCUUUUUCACGUGCGCGUGAAAGAGAGAAGUGAACCAGAGAAACACACGUUGUGGUAUAUUACCUGGUU,0.708
5,GUCCUUUUUCACGUGCGCGUGAAAGAGAGAAGUGAACCAGAGAAACACACGUUGUGGUAUAUUACCUGGUG,0.82
6,GUCCUGUUUCACGUGCGCGUGAAAGAGAGAAGUGAACCAGAGAAACACACGUUGUGGUAUAUUACCGGGUA,0.146
7,GUCCUGUUUCACGUGCGCGUGAAAGAGAGAAGUGAACCAGAGAAACACACGUUGUGGUAUAUUACCCGGUA,0.151
8,GUCCUUUUUCACGUGCGCGUGAAAGAGAUAAGUGAACCAGAGAAACACACGUUGUGGUAUAUUACCUGGUA,0.12
9,GUCCUGUUUCACGUGCGCGUGAAAGAGAGAAGUGAACCAGAGAAACACACGUUGUGGUAUAUUACCUGCUA,0.115
10,GUCCUGUUUCACGUGCGCGUGAAAGAGAGAAGUGAACCAGAGAAACACACGUUGUGGUAUAUUACCUGUUA,0.188
11,GUCCUGUUUCACGUGCGCGUGAAAGAGAGAAGUGAACCAGAGAAACACACGUUGUAGUAUAUUACCUGGUA,0.149
12,GUCCUGUUUCACGUGCGCGUGAAAGAGAGAAGUGAACCAGAGAAACACACGUUGUCGUAUAUUACCUGGUA,0.175
13,GUCCUUUUUCACGUGCGCGUGAAAGAGAGAAGUGAACCAGAGAACCACACGUUGUGGUAUAUUACCUGGUA,0.0819
14,GUCCUUUUUCACGUGCGCGUGAAAGAGAGAAGUGAACCAGUGAAACACACGUUGUGGUAUAUUACCUGGUA,0.977
15,GUCCUGUUUCACGAGCGCGUGAAAGAGAGAAGUGAACCAGAGAAACACACGUUGUGGUAUAUUACCUGGUA,0.634
16,GUCCUGUUUCACGGGCGCGUGAAAGAGAGAAGUGAACCAGAGAAACACACGUUGUGGUAUAUUACCUGGUA,0.374
17,GUCCUUUUUCACGUGCGCGUGAAAGAGAGAAGUGAACCAGAGAAACACGCGUUGUGGUAUAUUACCUGGUA,0.571
18,GUCCUUUUUCACGUGCGCGUGAAAGAGAGAAGUGAACCAGAGAAACACACGUUGUGGUAUAUUACUUGGUA,0.309
19,GUCCUUUUUAACGUGCGCGUGAAAGAGAGAAGUGAACCAGAGAAACACACGUUGUGGUAUAUUACCUGGUA,0.55
20,GUCCUUUUUUACGUGCGCGUGAAAGAGAGAAGUGAACCAGAGAAACACACGUUGUGGUAUAUUACCUGGUA,0.582
21,GUCCUUUUUCACGUGCGCGUGAAAGAGAGAAGUGAAUCAGAGAAACACACGUUGUGGUAUAUUACCUGGUA,0.6
22,GUCCUUUUUCACGUGCGCGUGAAAGAGAGAAGUGAACCAGAGAAACACACGUUGUGGUAUAUUAGCUGGUA,0.232
23,GUCCUUUUUCACGUGCGCGUGAACGAGAGAAGUGAACCAGAGAAACACACGUUGUGGUAUAUUACCUGGUA,0.747
24,GUCCUUUUUCACGUGCGCGUGAAAGAGAGAAGUGAACCAGAGAAACACACGUUCUGGUAUAUUACCUGGUA,0.311
25,GUCCUUUUUCACGUGCGCGUGAAAGAGAGAAGUGAACCAGAGAAACGCACGUUGUGGUAUAUUACCUGGUA,0.107
26,GUCCUUUUUCACGUGCGCGUGAAAGAGAGAAGUGAACCAGAGAAACUCACGUUGUGGUAUAUUACCUGGUA,0.0966

row,Variant,self-cleavage
1,GUCCUUUUUCACGUGCGCGUGAAAGAGAGAAGUGAACCAGAGAAACCCACGUUGUGGUAUAUUACCUGGUA,0.283
2,GUCCUUUUUCACGUGCGCGUGAAAGAGAGAGGUGAACCAGAGAAACACACGUUGUGGUAUAUUACCUGGUA,0.451
3,GUCCUUUUUCACGUGCGCGUGUAAGAGAGAAGUGAACCAGAGAAACACACGUUGUGGUAUAUUACCUGGUA,0.789
4,GUCCUUUUUCACGUGCGCGUGCAAGAGAGAAGUGAACCAGAGAAACACACGUUGUGGUAUAUUACCUGGUA,0.493
5,GUCCUUUUUCACGUGCGCGUAAAAGAGAGAAGUGAACCAGAGAAACACACGUUGUGGUAUAUUACCUGGUA,0.572
6,GUCCUGUUUCACGUGCGCGUGAAAGAGAGAAGUGAACCAGAGAAACACACGUUGUGCUAUAUUACCUGGUA,0.124
7,GUCCUUUUUCACGUGCGAGUGAAAGAGAGAAGUGAACCAGAGAAACACACGUUGUGGUAUAUUACCUGGUA,0.885
8,GUCCUGGUUCACGUGCGCGUGAAAGAGAGAAGUGAACCAGAGAAACACACGUUGUGGUAUAUUACCUGGUA,0.131
9,GUCCUGCUUCACGUGCGCGUGAAAGAGAGAAGUGAACCAGAGAAACACACGUUGUGGUAUAUUACCUGGUA,0.299
10,GUCCUUUUUCACGUGCGCGUGAAAGAGAGUAGUGAACCAGAGAAACACACGUUGUGGUAUAUUACCUGGUA,0.152
11,GUCCUUUUUCACGUGCGCGUGAAAGAGAGAAGUGAACCACAGAAACACACGUUGUGGUAUAUUACCUGGUA,0.14
12,GUCCUUUUUCACGUGAGCGUGAAAGAGAGAAGUGAACCAGAGAAACACACGUUGUGGUAUAUUACCUGGUA,0.85
13,GUCCUGUUUCACGUGCGCGUGAAAGAGAGAAGUGAACCAGACAAACACACGUUGUGGUAUAUUACCUGGUA,0.157
14,GUCCUGUUUCACGUGCGCGUGAAAGAGAGAAGUGAACCAGAAAAACACACGUUGUGGUAUAUUACCUGGUA,0.0986
15,GUCCUUUUUCACGUGCGCGUGAAAGAGGGAAGUGAACCAGAGAAACACACGUUGUGGUAUAUUACCUGGUA,0.734
16,GUCCUUUUUCACGUGCGCGUGAAAGAGCGAAGUGAACCAGAGAAACACACGUUGUGGUAUAUUACCUGGUA,0.428
17,GUCCUGUUUCACGUGCGCGUGAAAGAGAGAAGUGAACCAGAGAAACACACGCUGUGGUAUAUUACCUGGUA,0.595
18,GUCCUUUUUCACGUGCGCGUGAAAGAGAGAAGUGAACCAGAGAUACACACGUUGUGGUAUAUUACCUGGUA,0.12
19,GUCCUGUUUCACGUGCGCGUGAAAGAGAGAAGAGAACCAGAGAAACACACGUUGUGGUAUAUUACCUGGUA,0.155
20,GUCCUUUUUCACGUGCGCGUGAAAGAGAGAAGUGAGCCAGAGAAACACACGUUGUGGUAUAUUACCUGGUA,0.834
21,GUCCUUUUUCACUUGCGCGUGAAAGAGAGAAGUGAACCAGAGAAACACACGUUGUGGUAUAUUACCUGGUA,0.6
22,GUCCUUUUUCACGUGCGCGUGAAAGAGAGAAGUGAACCAGAGAAACACACGUUGUGGUAUGUUACCUGGUA,0.155
23,GUCCUUUUUCACGUGCGCGUGAAAGAGAGAAGUGAACCAGAGAAACACACGUUGUGGUAUUUUACCUGGUA,0.0757
24,GUCCUUUUUCAAGUGCGCGUGAAAGAGAGAAGUGAACCAGAGAAACACACGUUGUGGUAUAUUACCUGGUA,0.656
25,GUCCUUUUUCAGGUGCGCGUGAAAGAGAGAAGUGAACCAGAGAAACACACGUUGUGGUAUAUUACCUGGUA,0.661
26,GUCCUUUUUCACGUGCGCGUGAAAGAGAGAAGUGAACUAGAGAAACACACGUUGUGGUAUAUUACCUGGUA,0.37

row,Variant,self-cleavage
1,GUCCUUUUUCACGUGCGCGUGAAAGAGAGAAGUGAACGAGAGAAACACACGUUGUGGUAUAUUACCUGGUA,0.189
2,GUCCUUUUUCACGUGCGCGUGAAAGAGAGAAGUGAACCAGAGAAACACACGUUGUGGUCUAUUACCUGGUA,0.251
3,GUCCUUUUUCACGUGCGCGUGAAAGAGAGAAGUGAACCAGAGAAACACACGUUGUGGUGUAUUACCUGGUA,0.266
4,GUCCUUUUUCACGUGCGCGUGAAAGAGAGAAGUGAACCAGAGAAACACACGUUGUGGUUUAUUACCUGGUA,0.127
5,GUCCUGUUUCACGUGCGCGAGAAAGAGAGAAGUGAACCAGAGAAACACACGUUGUGGUAUAUUACCUGGUA,0.242
6,GUCCUUGUUCACGUGCGCGUGAAAGAGAGAAGUGAACCAGAGAAACACACGUUGUGGUAUAUUACCUGGUA,0.449
7,GUCCUUUUUCACGUGCGCGUGAAAGAGAGAAGUGAACCAGAGAAAAACACGUUGUGGUAUAUUACCUGGUA,0.0705
8,GUCCUUUUUCACGUGCGCGUGAAAGAGAGAAGUGAACCAGAGAAAGACACGUUGUGGUAUAUUACCUGGUA,0.204
9,GUCCUUUUUCACGUGCGCGUGAAAGAGAGAAGUGAACCAGAGAAACACACGUUGUCGUAUAUUACCUGGUA,0.149
10,GUCCUUUUUCACGUGCGCGUGAAAGAGAGAAGUGAACCAGAGAAACACACCUUGUGGUAUAUUACCUGGUA,0.823
11,GUCCUUUUUCACGUGCGCGUGAAAGAGAGAAGUGAACCAGAGAAACACACGUUGUGGUAUAUUACCUGUUA,0.256
12,GUCCUUUUUCACGUGCGCGUGAAAGAGAGAAGUGAACCAGAGAAACACACGUUGUGGUAUAUUACCUGCUA,0.178
13,GUCCUUUUUCACGUGCGCCUGAAAGAGAGAAGUGAACCAGAGAAACACACGUUGUGGUAUAUUACCUGGUA,0.719
14,GUCCUUUUUCACGUGCGCAUGAAAGAGAGAAGUGAACCAGAGAAACACACGUUGUGGUAUAUUACCUGGUA,0.793
15,GUCCUUUUUCACGUGCGCGUGAAAGAGAGAAGUGAACCAGAGAAACACACGUUGUGCUAUAUUACCUGGUA,0.135
16,GUCCUUUUUCACGUGCGCGUGAAAGAGAGAAGUGAACCGGAGAAACACACGUUGUGGUAUAUUACCUGGUA,0.304
17,GUCCUGUUUCACGUGCGCGUGAAAGAGAGAAGUGAACCAGAGAAACACACGUUGUGGUAAAUUACCUGGUA,0.496
18,GUCCUGUUUCACGUGCGCGUGAAAGAGAGAAGUGAACCAGAGAAACACACGUUGUGGUAGAUUACCUGGUA,0.31
19,GUCCUGUUCCACGUGCGCGUGAAAGAGAGAAGUGAACCAGAGAAACACACGUUGUGGUAUAUUACCUGGUA,0.436
20,GUCCUGUUUCACGUGCGCGUGAAAGAGAGAAGUGAACCAGAGAAACACACUUUGUGGUAUAUUACCUGGUA,0.44
21,GUCCUUUUUCACGUGCGCGUGAAAGAGAGAAUUGAACCAGAGAAACACACGUUGUGGUAUAUUACCUGGUA,0.0839
22,GUCCUUUUUCACGUGCGCGUGAAAGAGAGAACUGAACCAGAGAAACACACGUUGUGGUAUAUUACCUGGUA,0.0823
23,GUCCUUUUUCACGUGCGCGUGAAAGAGAGAAAUGAACCAGAGAAACACACGUUGUGGUAUAUUACCUGGUA,0.114
24,GUCCUUUUUCACGUGCGCGUGAAAGAGAGAAGUGAACCAGAGAAACACACGUUGUGGUAUAUUACCUGGUA,0.826
